To fix the notation:
B1: SNAP-SHP1-cSH2 (domain or fragment)
chain: WYHGHMSGGQAETLLQAKGEPWTFLVRESLSQPGDFVLSVLSDQPKAGPGSPLRVTHIKVMCEGGRYTVGGLETFDSLTDLVEHFKKTGIEEASGAFVYLRQPY
B2: His10-BTLA^ICD BTLA^FFFY, pre-phosphorylated (domain or fragment)
chain: DTAGREINLVDAHLKSEQTEASTRQNSQVLLSETGIFDNDPDLCFRMQEGSEVFSNPCLEENKPGIVFASLNHSVIGPNSRLARNVKEAPTEYASICVRS
modifications: pre-phosphorylated with Fyn; lone tyrosine (Y282) in the ITSM
B3: His10-BTLA^ICD BTLA^FFYF, pre-phosphorylated (domain or fragment)
chain: B2 chain with F68Y, Y93F
modifications: pre-phosphorylated with Fyn; lone tyrosine (Y257) in the ITIM

Changes are numbered by the printed parent chain.

The target in assay [1] is B3. Kind of assay: SPR.
In another assay the target is SNAP-SHP2-cSH2. Briefly: SPR. On the technique in general: SPR reads the build-up and loss of mass on a sensor chip optically.

These results are taken from PMC8631942 (2021).

A word on the Kd: it is a measure of binding affinity in units of concentration.

In assay [1], B1 displayed a Kd of 1800 nM.

B2 displayed a Kd with SNAP-SHP2-cSH2 of 1100 nM.

On to B3, for which the Kd with SNAP-SHP2-cSH2 stood at 1100 nM.
